Among the data in patent EP4737482A1 (Atheon Bio, Inc., dated 2026) are koff, Kd and kon values, retold here.

The target in assay [1] is T1, human MYCT1 (hMYCT1) (human, UniProt Q8N699 1-235, limits assumed).
T1 construct: also called MYC Target 1
T1 sequence: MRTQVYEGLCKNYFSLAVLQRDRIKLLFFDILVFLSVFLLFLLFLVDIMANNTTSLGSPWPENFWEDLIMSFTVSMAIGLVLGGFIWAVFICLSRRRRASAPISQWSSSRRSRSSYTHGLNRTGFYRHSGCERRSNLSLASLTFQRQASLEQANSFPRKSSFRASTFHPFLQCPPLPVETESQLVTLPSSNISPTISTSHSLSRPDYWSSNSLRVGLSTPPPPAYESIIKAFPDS
Description: SPR koff ranking, 1:1 binding model.

The target in assay [2] is T1, human MYCT1 (hMYCT1). As to the kind of experiment: SPR koff ranking, single curve, antibody captured via anti-human Fc IgG, 10 nM MYCT1 as analyte, 1:1 binding model.
Assay [3] has as its target T1, human MYCT1 (hMYCT1). As to the kind of experiment: SPR full kinetics, multicycle, antibody captured via anti-human Fc IgG, MYCT1 0.625-10 nM as analyte, 1:1 binding model.
In assay [4] the target is T1, human MYCT1 (hMYCT1). As to the kind of experiment: SPR (Biacore 8K), antibody captured via anti-human Fc IgG, MYCT1 as analyte, steady-state affinity model.
For assay [5], the target named is T1, human MYCT1 (hMYCT1). As to the kind of experiment: SPR full kinetics (Biacore 8K), antibody captured via anti-human Fc IgG, MYCT1 as analyte, steady-state affinity model. Background: Surface plasmon resonance follows binding to a sensor surface in real time, without labels.
Assay [6] addresses T1, human MYCT1 (hMYCT1). Description: SPR (Biacore 8K), antibody captured via anti-human Fc IgG, MYCT1 as analyte, steady-state affinity model. The source holds these as a separate data set.

B1: 11B6 parent antibody (antibody, V domains shown)
VH: EVQLVESGGGLVKPGGSLKLSCAASGFTFSDFGIHWVRQAPEKGLEWVGYISSGSRTIHYADTVKGRFTISRDNAKNTLFLQMTNLRSEDTAIYYCARRDWDPEWLAYWGQGTLVTISA
VL: DVVMTQAPLSLPVSLGDQASISCRSSLSLVHSNGHTYLHWYLQKPGQSPKLLIYKVSNRFSGVPDRFSGSGSGTDFTLKIRRVEAEDLGVYFCSQSTHVPFTFGSGTKLEIK
notes: Mouse parental variable domains; also called parent antibody (11B6); 11B6 clone
Broadly, the koff is the first-order rate constant of dissociation. A lower koff goes with a long-lived complex. In general, Kd refers to the free concentration of one partner at which half of the binding sites on the other are occupied at equilibrium, for simple one-to-one binding. As a reminder, the kon is the second-order rate constant of association. Lower therefore signals slower complex formation. For the molecule B1, the results for the off-rate (koff) in assay [1], in assay [2] and in assay [3] were 0.00456 s⁻¹, 0.00496 s⁻¹ and 0.00411 s⁻¹, respectively. The Kd in assay [3] is 1.2 nM. This molecule also showed a kon in assay [3] of 3.44e+06 M⁻¹ s⁻¹.

B2: 2B4 parent antibody (antibody, V domains shown)
VH: EVQLQQSGPELVKPGASVKMSCKASGYTFTDYNMHWVRQSHGKGLEWIGYINPNNGGSSYNRKFKGKATLTVNKSSRSASMELRSLTSEDSAVYYCATRFDVWGTGTTVTVSS
VL: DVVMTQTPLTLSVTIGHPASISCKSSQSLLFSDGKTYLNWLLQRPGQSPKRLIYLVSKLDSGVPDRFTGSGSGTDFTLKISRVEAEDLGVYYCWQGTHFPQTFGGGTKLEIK
notes: Mouse parental variable domains; also called parent antibody (2B4); 2B4 clone
As to B2, the Kd in assay [4] was 181 nM; in assay [5], 281 nM; in assay [6], 273 nM.

B3: 2B4-p3-uIgG1K (antibody, V domains shown)
VH: EVQLQQSGPELVKPGASVKMSCKASGYTFTDYNMHWVRQSHGKGLEWIGYINPNNAGSSYNRKFKGKATLTVNKSSRSASMELRSLTSEDSAVYYCATRFDVWGTGTTVTVSS
VL: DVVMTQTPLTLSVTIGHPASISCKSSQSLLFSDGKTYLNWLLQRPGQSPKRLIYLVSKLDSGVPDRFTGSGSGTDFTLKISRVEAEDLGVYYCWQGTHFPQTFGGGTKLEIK
As to B3, in assay [6], the Kd worked out at 270 nM.

B4: 2B4-p1-uIgG1K (antibody, V domains shown)
VH: EVQLQQSGPELVKPGASVKMSCKASGYTFTDYNMHWVRQSHGKGLEWIGYINPNQGGSSYNRKFKGKATLTVNKSSRSASMELRSLTSEDSAVYYCATRFDVWGTGTTVTVSS
VL: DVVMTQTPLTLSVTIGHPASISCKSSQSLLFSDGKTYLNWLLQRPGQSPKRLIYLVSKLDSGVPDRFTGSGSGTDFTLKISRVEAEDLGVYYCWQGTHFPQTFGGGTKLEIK
In assay [6], B4 displayed a Kd of 264 nM.

B5: 2B4-p6-uIgG1K (antibody, V domains shown)
VH: EVQLQQSGPELVKPGASVKMSCKASGYTFTDYNMHWVRQSHGKGLEWIGYINPNNGGSSYNRKFKGKATLTVNKSSRSASMELRSLTSEDSAVYYCATRFDVWGTGTTVTVSS
VL: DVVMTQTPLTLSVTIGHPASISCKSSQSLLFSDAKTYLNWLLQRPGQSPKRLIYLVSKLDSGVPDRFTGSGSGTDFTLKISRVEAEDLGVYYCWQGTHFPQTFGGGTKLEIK
B5 had a Kd in assay [6] of 288 nM.

B6: 2B4-p4-uIgG1K (antibody, V domains shown)
VH: EVQLQQSGPELVKPGASVKMSCKASGYTFTDYNMHWVRQSHGKGLEWIGYINPNNGGSSYNRKFKGKATLTVNKSSRSASMELRSLTSEDSAVYYCATRFDVWGTGTTVTVSS
VL: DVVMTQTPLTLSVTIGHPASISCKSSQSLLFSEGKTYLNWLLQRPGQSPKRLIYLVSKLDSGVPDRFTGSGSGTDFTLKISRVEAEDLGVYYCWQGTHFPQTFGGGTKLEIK
B6 yielded a Kd in assay [6] above 500 nM.

B7: 2B4-p2-uIgG1K (antibody, V domains shown)
VH: EVQLQQSGPELVKPGASVKMSCKASGYTFTDYNMHWVRQSHGKGLEWIGYINPNSGGSSYNRKFKGKATLTVNKSSRSASMELRSLTSEDSAVYYCATRFDVWGTGTTVTVSS
VL: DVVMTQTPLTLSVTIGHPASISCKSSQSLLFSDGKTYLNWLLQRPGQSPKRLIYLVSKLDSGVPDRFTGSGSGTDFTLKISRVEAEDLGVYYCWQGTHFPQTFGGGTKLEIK
Take B7: the affinity in assay [6], expressed as Kd, was 224 nM. This lies in the sub-micromolar range.

B8: 2B4-z2-p7-uIgG1K (antibody, V domains shown)
VH: QVQLVQSGAEVKKPGASVKVSCKASGYTFTDYNMHWVRQAPGQGLEWMGYINPNSGGSSYNRKFKGRVTMTTDTSTSTAYMELRSLRSDDTAVYYCATRFDVWGQGTTVTVSS
VL: DVVMTQSPLSLPVTLGQPASISCKSSQSLLFSDAKTYLNWLQQRPGQSPRRLIYLVSKLDSGVPDRFSGSGSGTDFTLKISRVEAEDVGVYYCWQGTHFPQTFGGGTKVEIK
B8: in assay [5], the affinity, expressed as Kd, was 484 nM.

B9: 2B4-z8-p7-uIgG1K (antibody, V domains shown)
VH: QVQLVQSGAEVKKPGASVKVSCKASGYTFTDYNMHWVRQAPGQGLEWIGYINPNSGGSSYNRKFKGRVTMTTDTSTSTAYMELRSLRSDDTAVYYCATRFDVWGQGTTVTVSS
VL: DVVMTQSPLSLPVTLGQPASISCKSSQSLLFSDAKTYLNWLQQRPGQSPRRLIYLVSKLDSGVPDRFSGSGSGTDFTLKISRVEAEDVGVYYCWQGTHFPQTFGGGTKVEIK
With B9, in assay [5], the Kd was determined as 586 nM.
